Fewer inactive variants are shown than the library holds.
B1: TPR 5TU (parent)
chain: GGAUCUUCUCGAUCUAACAAAAAAGACAAAUCUGCCACAAAGCUUGAGAGCAUCUUCGGAUGCAGAGGCGGCAGCCUUCGGUGGCGCGAUAGCGCCAACGUUCUCAACUAUGACACGCAAAACGCGUGCUCCGUUGAAUGGAGUUUAUCAUG

Variants of: B1
Assay: polymerase ribozyme fitness, log enrichment relative to wild type (log ratio); higher = more active; in vitro selection for triplet polymerase activity
Summary of the method: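 Mutant libraries for each subunit of a heterodimeric triplet polymerase ribozyme were made by PCR and then transcribed. Each library underwent one round of in vitro selection in triplicate: annealing with a biotinylated primer, the partner subunit and triplets, frozen incubation at −7 °C, gel excision of extended constructs, streptavidin-bead capture and RT-PCR. Input and output libraries were Illumina-sequenced, and only genotypes with ≥10 input reads and ≥1 read per output were kept. Fitness is the logarithm, base 2, of genotype enrichment over wild-type enrichment, computed from inverse-variance-weighted replicate averages.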

Row | Variant | polymerase ribozyme fitness (log ratio)
1 | G59C G94C | -0.253
2 | G68A G81A C95A A150C G152A | ≤ -4.2
3 | A60C C96U A142C G143A | ≤ -4.2
4 | G62A C116U | -0.0465
5 | A66G G83C U111G | ≤ -4.2
6 | U61G G88A | -4.18
7 | C63A C79U G94C A119G | ≤ -4.2
8 | A66G C96U A138U U151A | ≤ -4.2
9 | C69A A121G | -1.74
10 | A60G G88C A106U U134A G140C G143C | ≤ -4.2
11 | G68U G136A | -3.9
12 | C69G G84A U101C | -2.05
13 | G59U G80A | -0.046
14 | G59U C87G C95U U101G C149G | ≤ -4.2
15 | G68C C99G | ≤ -4.2
16 | U61G C85A G133C | -3.52
17 | G67A C87U | -4.13
18 | C63U C99G U151A | ≤ -4.2
19 | G59C C96U A106G C132U U145C | -0.905
20 | C63U C85U C95U C149U | -1.91
21 | G67A A89G G92C C93A C116U A122C U127C | ≤ -4.2
22 | G68A A91U A107C A110G G141A | ≤ -4.2
23 | U61C C87A | ≤ -4.2
24 | G68C A89G G94A A113U | ≤ -4.2

Row | Variant | polymerase ribozyme fitness (log ratio)
25 | G65C G74C G88A C93G U146A | ≤ -4.2
26 | A60G C87A U109A C132G | ≤ -4.2
27 | U61A A89C A107U G117U U144G U151A | ≤ -4.2
28 | C69G C75G | -2.12
29 | G65A G84U | -2.89
30 | A64G A91C A115G U145C | -3.96
31 | A60G G67U G86A | -4.13
32 | A64U C87A C95U U139A | ≤ -4.2
33 | A60U C85G A89U | ≤ -4.2
34 | G62C C79U G141U | ≤ -4.2
35 | U61A C99G | -3.23
36 | C69G C96U A142C | -2.43
37 | C63G U90G G94A | -3.97
38 | A60G C72U G124A | 0.612
39 | G68A G83A C116U | ≤ -4.2
40 | G59C G83A C103U A122G | -0.809
41 | A60G G67A U78G C96G A120U G140U A147G | ≤ -4.2
42 | G59C U78C C85A U144A A150U | ≤ -4.2
43 | A60G C96A A121U | -0.437
44 | A60G G100A U151G | ≤ -4.2
45 | A60G C95A U101C | 0.139
46 | G62C G94A G133C G141U | -3.95
47 | C63U A122U | 0.751
48 | A60G C69A A91U A97U U134C | ≤ -4.2

Row | Variant | polymerase ribozyme fitness (log ratio)
49 | G68C C96G U139A | ≤ -4.2
50 | A66C C76U | -3.47
51 | G67C G92U C99U A107U U148A | ≤ -4.2
52 | G67U G117A U151A | ≤ -4.2
53 | G59C G124A U151C | -3.78
54 | G65A G74C G140U A147G | ≤ -4.2
55 | G65C G81U G94C C105G A115G C129U A138C | ≤ -4.2
56 | A66G C87U | -3.68
57 | A60U C76A A120U | -1.94
58 | G67C A91C | ≤ -4.2
59 | A60C C76U A89G C114U G141U | ≤ -4.2
60 | G68A G71C C95A C116U | ≤ -4.2
61 | G65A G136C A147C | -4.13
62 | C69A C85A G124U | -2.55
63 | A60C C76U G80C G117U C123A | ≤ -4.2
64 | A60C U82A G84U U102G G126U | ≤ -4.2
65 | A60C U61A C69G G74A U146G A150C | ≤ -4.2
66 | G65U U82A C93U C95G | ≤ -4.2
67 | G59C G65C C76G U145G C149A | ≤ -4.2
68 | A60G A119C A120U U151C | -4.18
69 | U61A A107C C114U G140U | ≤ -4.2
70 | A60C A91U C93G A122C | ≤ -4.2
71 | G62C G141C | -0.741
72 | C63G C72U C93U | -0.337

Row | Variant | polymerase ribozyme fitness (log ratio)
73 | A66C C85A | ≤ -4.2
74 | A64U | -3.99
75 | A64G | -2.27
76 | A64C | ≤ -4.2
77 | G62A C93A | -1.93
78 | U61A C108U | -3.86
79 | G59C C103U | 0.229
80 | G59C U61A A64C | ≤ -4.2
81 | C69A A115U | -2.49
82 | A66G G84A G141C | ≤ -4.2
83 | G62U G94A | -1.25
84 | C69A G70C | -3.18
85 | G62U C63U G68A C95A C103A | ≤ -4.2
86 | G62C A137C U148G | ≤ -4.2
87 | C69G A121U | -2.04
88 | G68U A150G | ≤ -4.2
89 | A64C G71A U144G U148G | ≤ -4.2
90 | A60G A73G C85A | -2.02
91 | G68A C87G U104G | ≤ -4.2
92 | G62U C72U C93U A122G | -3.31
93 | A60C C85U | -1.01
94 | U61A C103G A115U | ≤ -4.2
95 | A60C A73U | -3.54
96 | A64G G84U U151A | ≤ -4.2

Row | Variant | polymerase ribozyme fitness (log ratio)
97 | G62C G92C | -3.09
98 | G59C G67A U78G C79A C87A G143A | ≤ -4.2
99 | A60U G86A A150C | ≤ -4.2
100 | U61A C76A | -3.6
101 | A60G U90A C95A G117A | -3.93
102 | A66U G94A G100U U148G | ≤ -4.2
103 | G68C G136U A142G | ≤ -4.2
104 | G59U G81A C85G A106C | -3.51
105 | G68U C85G U139A U145G U146G | ≤ -4.2
106 | G62C C72U C85U C108U | ≤ -4.2
107 | C63U C75A G86A A89U A106U U134G | ≤ -4.2
108 | G59U C103U | -0.503
109 | A60C G94C A97G A98G U134C | -3.8
110 | C69U A73U | -2.64
111 | C69A C76G C79A U102A G141C | ≤ -4.2
112 | A64G C99A | -3.82
113 | G65A C96U G112C A115G U144A | ≤ -4.2
114 | A60U C96G | -3.34
115 | G59C G92U C105A C125A C149U | ≤ -4.2
116 | G67A C76A | -4.16
117 | G59U A97C | -0.238
118 | U61G G92C C95U C105U A106C U109C A138G | ≤ -4.2
119 | C69A C93G C103A U130A | ≤ -4.2
120 | C69A U82G | -1.91

Row | Variant | polymerase ribozyme fitness (log ratio)
121 | A60U A64C A89U C116G G133C A147C U148C | ≤ -4.2
122 | G59U A120G | -0.485
123 | G62C G143U | -3.58
124 | G62A G84A U135A | -1.93
125 | U61A G74A C76U C87A C108U A142U | ≤ -4.2
126 | G62A C103U | -1.66
127 | A60G C96U | 0.674
128 | A60C G92U A97G | -2.29
129 | C63U G80A A97G A110G | -4.19
130 | U61A G65A G67C G84U C96G G141U | ≤ -4.2
131 | G68A A106C | -4.13
132 | G68C G83U G92A U102A A137G A142G | ≤ -4.2
133 | G59C U109G | -0.84
134 | A60G G83A G133C | -1
135 | C69G G94A | -1.15
136 | C69A G92U | -1.15
137 | A60U G86A | -2.78
138 | U61G G84A U139C U145C | ≤ -4.2
139 | G59U A66G A91G G100U U134A G143A A147G A150C | ≤ -4.2
140 | U61A G92C | -3.57
141 | G59C G126C | 0.783
142 | A60U C93A | -3.06
143 | C69G C76A G152U | -4.17
144 | G62A G67A C72U C75G C93G C95U A120G | ≤ -4.2

Row | Variant | polymerase ribozyme fitness (log ratio)
145 | A66G C69U | ≤ -4.2
146 | G68A A119U A122U U148A | ≤ -4.2
147 | G59U A60C G83A C116U C118G | -2.5
148 | U61A C76U U102G U109C | ≤ -4.2
149 | C63G G81U G92A G117C C118U G143U | ≤ -4.2
150 | U61A C96A | -1.36
151 | U61A C96U | -1.32
152 | G68C G81U C96U U109C | ≤ -4.2
153 | U61A C95A | -1.41
154 | G59U A106G C114U | -1.65
155 | C69G C93U | -3.1
156 | U61G C76A U78C G88C | ≤ -4.2
157 | G68U C129U | ≤ -4.2
158 | G62C C72U C93U G133A G141U | ≤ -4.2
159 | G59U C85G A119U G128A | -4.19
160 | G68U A91G | ≤ -4.2
161 | C69G A89U | -1.45
162 | A60G C85A | -0.96
163 | G65U U78A | -1.52
164 | U61G G62A C87U | -1.28
165 | G65C G86C | ≤ -4.2
166 | G65A C114A | -3.39
167 | G67U C87G U130A | ≤ -4.2

From the RNAGym collection of RNA variant scans (doi:10.1073/pnas.2313332121)
